# According to PMC4722774, “Characterization of a cold-active esterase from Serratia sp. and improvement of thermostability by directed evolution” (BMC Biotechnology, 2016):
# B1: EstS (Serratia sp. HZ15) (protein)
# chain: MPLDPQIARFLAEAAQAPAPASLSEMREVAHAGLLALQGEAEASGGVRDGWVTADDGRAIAIRAYTPGGATPGEPLPAMLYAHGGGWCLGSLALYDRPCQALANATGRVILSVDYRLAPEYPYPRPLEDVYQALCGVVERADEWGVDVARMAVGGDSAGGNLAAAVALLARDRKGPQIEHQLLLYPALSRAMDTASYKEYAQGYYLTREVMAFCWNTYLGEADKPQDPYAEPLHAPMLQRLPPATILSCEYDPLRDEAELYAKRLQEAGVAVRCERLPGMVHACIHMLGLTPAARVLFDKVG
# notes: full-length 302 residues, no signal peptide predicted; GST fusion (pGEX-6P-1) in E. coli BL21 (DE3), GST cut off by 3C protease; ~32 kDa
# Legend:
# [1] = tested on: T1, CC(=O)Oc1ccc([N+](=O)[O-])cc1; experiment: purified protein; format: biochemical, Serratia sp. HZ15; settings: pH 8.5, 50 mM Tris-HCl, 10 °C, 0.01-0.3 mM substrate
# T1 construct: full-length 302 residues, no signal peptide predicted; GST fusion (pGEX-6P-1) in E. coli BL21 (DE3), GST cut off by 3C protease; ~32 kDa
# purified protein = substrate: CC(=O)Oc1ccc([N+](=O)[O-])cc1; experiment: purified protein; format: biochemical, Serratia sp. HZ15; settings: pH 8.5, 50 mM Tris-HCl, 10 °C, 0.01-0.3 mM substrate
Molecule,Km [1],kcat [1],kcat/Km [1],Km (purified protein),kcat (purified protein),kcat/Km (purified protein)
EstS (Serratia sp. HZ15; A43V/D147N/R116W),87.59 ± 2.4 µM,2500 s⁻¹,2.86e+07 ± 3.7e+06 M⁻¹ s⁻¹,–,–,–
B1,–,–,–,74.02 ± 1.9 µM,2340 s⁻¹,3.16e+07 ± 3.1e+06 M⁻¹ s⁻¹
